Data taken from patent US20230398228A1, “ERIBULIN-BASED ANTIBODY-DRUG CONJUGATES AND METHODS OF USE” (EISAI R&D MANAGEMENT CO., LTD., priority 2016, published 2023).

Columns and labels:
[1] = SEC-HPLC aggregation analysis; assay type: physicochemical
Protocol: The antibody aggregation was analyzed by size-exclusion, high-performance liquid chromatography (SEC-HPLC) using an Agilent 1100. The mAb was diluted to 1 mg/mL in DPBS. The antibody (20 μL) was injected onto a TSKgel® SuperSW guard column (4.6 mm×3.5 cm, 4 μm pore size, Tosoh Bioscience), followed by a TSKgel® SuperSW3000 column (4.6 mm×30 cm, 4 μm pore size), eluted from the column with 0.1 M sodium phosphate containing 0.15 M NaCl and 0.05% NaN3, at pH 7.4, at a flow rate of 0.3 mL/min for 20 min. All data were analyzed using Agilent ChemStation software. Percent aggregation was calculated as [PAaggregate/PAtotal]*100, where PA=integrated peak area.
ADC was diluted to 1 mg/mL in DPBS. ADC (10 μL) was then injected onto an Advanced SEC 300A guard column (4.6 mm×3.5 cm, 2.7 μm pore size, Agilent), followed by a AdvancedBio 300A column (4.6 mm×30 cm, 2.7 μm pore size). ADC was eluted from the column with 0.1 M sodium phosphate containing 0.15 M NaCl and 5% IPA, pH 7.4 at a flow rate of 0.25 mL/min for 28 min. All data were analyzed using Agilent ChemStation software. Percent aggregation was calculated as [PAaggregate/PAtotal]*100, where PA=integrated peak area.

[2] = DAR analysis by LC-MS (UPLC/ESI-MS, reverse-phase LC-MS); settings: for DAR (LC-MS): reverse-phase LC-MS
Protocol: ADCs were deglycosylated using PNGase F (New England BioLabs). G7 buffer (10 μL) and PNGase F (2 μL) were added to the mAb (90 μL, 1 mg/mL in DPBS). The reaction was incubated in a Discover microwave (CEM) for 2 cycles: (1) microwave power 10 W, 37° C., 10 min, followed by a 5-min pause; (2) microwave power 2 W, 37° C., 10 min. A portion of the sample was reduced by adding DTT to a final concentration of 20 mM, followed by incubation at 60° C. for 3 min. Samples were then analyzed using a Waters Acquity Ultra Performance Liquid Chromatography (UPLC) and quadrupole time of flight (Q-Tof) Premier mass spectrometer. Samples (0.5-2 μg each) were injected onto a MassPrep™ micro desalting column at 65° C., eluted from the column with a 5 min equilibration in 95% of mobile phase A, a 10 min gradient (5-90% B), and a 10 min re-equilibration in 95% of mobile phase A, at 0.05 mL/min. Mobile phase A was 0.1% formic acid in water. Mobile phase B was 0.1% formic acid in acetonitrile. The Q-Tof mass spectrometer was run in positive ion, V-mode with detection in the range of 500-4000 m/z. The source parameters were as follows: capillary voltage, 2.25 kV (intact antibody)-2.50 kV (reduced antibody); sampling cone voltage, 65.0 V (intact antibody) or 50.0 V (reduced antibody); source temperature, 100° C.; desolvation temperature, 250° C.; desolvation gas flow, 550 L/hr. The protein peak was deconvoluted using the MassLynx® MaxEnt 1 function. Relative intensities of each unconjugated, singly-conjugated, and multiply-conjugated heavy and light chain masses were combined to calculate the overall DAR using the formula:
2[[ILC+1+2(ILC+2)+3(ILC+3)+ . . . n(ILC+n)]/ΣILCtot]+2[[IHC+1+2(IHC+2)+3(IHC+3)+ . . . n(IHC+n)]/ΣIHCtot]
where ILC+1 is mass intensity of light chain conjugated with one cytotoxin, ILC+2 is mass intensity of light chain conjugated with two cytotoxins, etc. IHC are the intensities from the corresponding conjugated heavy chains, and ΣILCtot and ΣIHCtot are the combined intensities of all unconjugated and conjugated light chains and heavy chains, respectively.
DAR was also analyzed using an LC-MS method with a Waters Alliance HPLC with SQD/PDA detection. Samples were injected onto a Proteomix RP-1000 column ([…], 1000A, 4.6 mm×15 cm, Sepax) at 65° C., and eluted with a 3 min equilibration in 25% B, a 27 min linear gradient from 25%-55% B, a 5 min hold at 55% B, a 1 min change to 90% B, a 5 min hold at 90% B, a 1 min change back to 25% B, and a 5 min reequilibration at 25% B. Mobile phase A was 0.1% TFA in water, and mobile phase B was 0.1% TFA in acetonitrile. The elute was then split (10:1) into PDA and SQD detectors. The SQD detector was set up as ES positive, capillary voltage at 3.2 kV, cone voltage at 40 V, extractor at 3 V, and RF lens at 0.2 V, source temperature at 150° C., and desolvation temperature at 250° C. Mass data was acquired at 200-2000 m/z for 40 min, continuum mode, scan time 1 second. Data was analyzed and deconvoluted offline using MassLynx and MaxEnt1. DAR was calculated using the formula:
2[[AUCLC+1+2(AUCLC+2)+3(AUCLC+3)+ . . . n(AUCLC+n)]/[…]]+2[[AUCHC+1+2(AUCHC+2)+3(AUCHC+3)+ . . . n(AUCHC+n)]/ΣAUCHCtot]
where AUCLC+1 is the area under the curve of the light chain peak conjugated with one cytotoxin, AUCLC+2 is the area under the curve of the light chain peak conjugated with two cytotoxins, etc. AUCHC is the area under the curve of the corresponding heavy chains, and ΣAUCLCtot and ΣAUCHCtot are the combined area under the curve of all unconjugated and conjugated light chains and heavy chains, respectively.

[3] = biological target: human mesothelin (Homo sapiens, UniProt Q13421); assay: ELISA, mesothelin; assay type: binding; settings: MORAb-009 and its ADCs; for EC50: read-out: Antigen Binding ELISA, EC50
Protocol: Recombinant human mesothelin was diluted to 1 μg/mL in coating buffer (50 mM carbonate-bicarbonate buffer, pH 9.6), and coated onto 96-well Maxisorp black plates (Thermo, Cat No. 43711, 100 μL/well) at 4° C., overnight. Coating solution was discarded and the plates were washed three times using 1×PBS with 0.05% Tween-20 (PBST) buffer. Plates were blocked in 300 μL blocking buffer (1% BSA in PBST) at room temperature for 2 hours on an orbital shaker. […] Blocking buffer was discarded and 100 μL/well of diluted antibody was added to the plates. Plates were incubated at room temperature for 2 hours on an orbital shaker. Antibody solution was discarded and plates were washed three times using PBST. 100 μL/well of goat-anti-human IgG (H+L)-HRP (1:10,000 dilution in blocking buffer) solution was added to the plates, and plates were incubated at room temperature for 1 hour on an orbital shaker. Secondary antibody solution was discarded and plates were washed three times using PBST. 100 μL/well of QuantaBlu fluorogenic peroxidase substrate working solution (Thermo, Cat No. 15169) was added to the plates, and plates were incubated at room temperature for 30 min. Fluorescence was read at excitation 325 nm/emission 420 nm using a SpectraMax M5 (Molecular Devices). Data was analyzed using SoftMaxPro 5.4.2 software with 4-parameter fitting.

[4] = tested on: NCI-H2110 cells; assay: Crystal Violet cytotoxicity assay (Example 4), NCI-H2110; assay type: cell-based, human; settings: mean of replicate experiments, read-out: Cytotoxicity IC50 (nM), NCI-H2110 (FR^med, MSLN^med)
Protocol: (§1) Test reagents were serial diluted 1:3 in 2 mL deep-well dilution plates, starting at 200 nM (10 dilutions total). […] Medium was then discarded. […] Plates were read at 570 nm. Data was analyzed using GraphPad Prism 6.

[5] = tested on: A431 cells; assay: Crystal Violet cytotoxicity assay (Example 4), A431 (parental); assay type: cell-based, human; settings: mean of replicate experiments, read-out: Cytotoxicity IC50 (nM), A431 (FR^neg, MSLN^neg)
Protocol: Test reagents were serial diluted 1:3 in 2 mL deep-well dilution plates, starting at 200 nM (10 dilutions total). […] Medium was then discarded. […] Plates were read at 570 nm. Data was analyzed using GraphPad Prism 6. […]
MAL-PEG2-Val-Cit-PAB-eribulin (ER-001159569) was conjugated to eight different anti-human mesothelin antibodies (Table 1). Binding affinities of the parental antibodies were determined by BIAcore analysis, as described above in section 1.6.1. Aggregation levels for all anti-human mesothelin ADCs were determined by SEC-HPLC and the DAR was analyzed using HIC-HPLC. In vitro potency was evaluated using a Crystal Violet cell-based cytotoxicity assay in A3 (A431 stabily transfected with human mesothelin (MSLN), MSLN^hi), OVCAR3 (human ovarian, MSLN^hi), HEC-251 (human endometroid, MSLN^med), H226 (human lung squamous cell mesothelioma, MSLN^lo), and A431 parental (MSLN^neg) cells.

[6] = tested on: IGROV1 cells; assay: Crystal Violet cytotoxicity assay (Example 4), IGROV1; assay type: cell-based, human; settings: mean of replicate experiments, read-out: Cytotoxicity IC50 (nM), IGROV1 (FR^hi, MSLN^neg)
Protocol: as §1

[7] = tested on: human BM-MSCs co-cultured with MKN-74 cells; assay: 3D co-culture system (rStomach, zPredicta), MSC differentiation by flow cytometry; assay type: cell-based; settings: 7 days treatment, MORAb-202 10 nM, MORAb-003 10 nM, eribulin […] and 0.2 nM (Table 41)
Protocol: All mesenchymal stem cell (MSC)-containing 3D co-culture experiments were conducted in zPredicta, using organ-specific 3D extracellular matrix systems such as rStomach™. Bone marrow mesenchymal stem cells (BM-MSCs) in rStomach™ were co-cultured with the Nuc Red Light MKN-74 gastric cancer cell line in quadruplicate in 48-well format for 12 days. […] Prior to culture, BM-MSCs were evaluated for target antigen expression and for markers of MSC differentiation (Table 40) by flow cytometry.
Controls included untreated and vehicle-treated (PBS and DMSO) cultures. MSC differentiation was monitored by light microscopy. Once visible differentiation was observed, samples were harvested for staining and flow cytometry analysis.
Bone marrow mesenchymal stem cells (BM-MSCs) in rStomach™ (zPredicta) were co-cultured with the MKN-74 gastric cancer cell line for 12 days. […] Once visible MSC differentiation was observed by light microscopy, samples were harvested for staining and flow cytometry analysis.

[8] = tested on: LXFA-737 NSCLC patient-derived xenograft; assay: NSCLC PDx model LXFA-737; assay type: in vivo, mouse; settings: for Tumor Volume / Tumor Growth Inhibition: 5 mg/kg single dose i.v.; for Tumor Growth Inhibition: vehicle = 100
From the text: Tumor implantation: NSCLC tumor fragments were obtained from LXFA-737 tumor xenografts serially passaged in nude mice. After removal from donor mice, tumors were cut into fragments (3-4 mm edge length) and placed in phosphate-buffered saline (PBS) containing 10% penicillin/streptomycin. Recipient animals were anesthetized by inhalation of isoflurane and received unilateral or bilateral tumor implants subcutaneously in the flank. Tumor xenografts were implanted with one or two tumors per mouse at a take rate <65%. In the case of a bilateral take, one of these tumors was explanted prior to randomization. Animals and tumor implants were monitored daily until solid tumor growth was detectable in a sufficient number of animals. At randomization, the volume of growing tumors was determined. […] Animals not used for experiments were euthanized.
Body weight was measured prior to dose on each dosing day, and two times per week during the study. At the end of the study, the terminal body weight was measured and recorded.

With COc1cc2cc(c1Cl)N(C)C(=O)C[C@H](OC(=O)C(C)N(C)C(=O)CCSC1CC(=O)N(CC3CCC(C(=O)ON4C(=O)CCC4=O)CC3)C1=O)[C@@H]1O[C@H]1[C@H](C)[C@@H]1C[C@@](O)(NC(=O)O1)[C@H](OC)/C=C/C=C(\C)C2 (stereo partly drawn) [M-DM1] the “Aggregation (%)” value ([1]; MORAb-003 ADCs, SEC-HPLC) was 1.8% and the DAR ([2]; MORAb-003 ADCs, DAR by LC-MS) was 3.6.
In the case of MORAb009, the “SEC-HPLC Analysis % Aggr.” value [1] is reported as 0%, the “SEC-HPLC Analysis % Frag.” value [1] is reported as 0% and the “SEC-HPLC Analysis % Monomer” value [1] is reported as 100%. The “Antigen Binding ELISA, EC50” value [3] was 0.0426 µg/mL and the EC50 [3] was 0.28 nM.
With MORAb009-DBCO-PEG2 eribulin the “SEC-HPLC Analysis % Aggr.” value [1] was 1.15%, the “SEC-HPLC Analysis % Frag.” value [1] was 0% and the “SEC-HPLC Analysis % Monomer” value [1] was 98.85%. The IC50 [4] was 85.7 nM, the “DAR (LC-MS)” value [2] was 3.07 and the IC50 [5] was greater than 100 nM. For the same molecule, the IC50 [6] was 75.7 nM, the “Antigen Binding ELISA, EC50” value [3] was 0.0233 µg/mL and the EC50 [3] was 0.16 nM.
In the case of MORAb009-DBCO-PEG4 VCP eribulin, the “SEC-HPLC Analysis % Aggr.” value [1] is reported as 0.22%, the “SEC-HPLC Analysis % Frag.” value [1] is reported as 0% and the “SEC-HPLC Analysis % Monomer” value [1] is reported as 99.78%. For the same molecule, the IC50 [4] was 31.4 nM, the “DAR (LC-MS)” value [2] was 2.91 and the IC50 [5] was greater than 100 nM. The IC50 [6] was 13 nM, the “Antigen Binding ELISA, EC50” value [3] was 0.0337 µg/mL and the EC50 [3] was 0.22 nM.
With MORAb009-DBCO-PEG4 eribulin the “SEC-HPLC Analysis % Aggr.” value [1] was 1.12%, the “SEC-HPLC Analysis % Frag.” value [1] was 0% and the “SEC-HPLC Analysis % Monomer” value [1] was 98.88%. The IC50 [4] was 39.3 nM, the “DAR (LC-MS)” value [2] was 2.8 and the IC50 [5] was greater than 100 nM. For the same molecule, the IC50 [6] was 61.5 nM, the “Antigen Binding ELISA, EC50” value [3] was 0.0452 µg/mL and the EC50 [3] was 0.3 nM.
With “MORAb-003: humanized anti-human folate receptor alpha antibody (USAN name: farletuzumab)” the “Percentage of live cells, Pericytes” value ([7]; PBS 14.6%) was 24.0%, the “Percentage of live cells, Adipocytes” value ([7]; PBS […]) was 0.69% and the “Percentage of live cells, MSCs” value ([7]; PBS […]) was 37.1%. For the same molecule, the “Tumor Volume” value ([8]; Day 21, n = 6) was 860.7 mm^3, the “Tumor Growth Inhibition” value ([8]; Day 21, n = 6) was “(85.7) %” and the “Tumor Volume” value ([8]; Day 32, n = 6) was 1572.1 mm^3. The “Tumor Growth Inhibition” value ([8]; Day 32, n = 6) was “(100.7) %” and the “anti-tumor activity, in words” value ([8]; 5 mg/kg single i.v. dose) was “did not demonstrate significant anti-tumor activity”.
